From PMC3410805, “Lipopolysaccharide impairs amyloid beta efflux from brain: altered vascular sequestration, cerebrospinal fluid reabsorption, peripheral clearance and transporter function at the blood–brain barrier” (Journal of Neuroinflammation, 2012)
No end group written: not given here.

Assays:
[1] = system: murine BBB; conditions: compared with human Aβ1-42; cited from earlier work
Source text: In this study we have shown that peripheral administration of LPS inhibits CSF bulk flow, central and peripheral clearance of Aβ, and increases vascular sequestration of Aβ. […] Al ...

[2] = Clearance of IV-injected I-Aβ from serum; assay type: in vivo, CD-1 mice; conditions: linear regression, n = 7–10 per group
Experimental: All animal protocols were performed in an Association for Assessment and Accreditation of Laboratory Animal Care accredited facility and approved by the animal committee of the VA and St Louis University Medical Centers. Male CD-1 mice were purchased from Charles River and kept on a 12/12 hour light/dark cycle with food and water freely available. Mice at 6–8 weeks of age were treated with 3 intraperitoneal (IP) injections of 3 mg/kg LPS from Salmonella typhimurium (Sigma, St. Louis, MO, USA) dissolved in sterile normal saline over a 24-hour period as previously described. […]
In BSA/lactated Ringer’s solution 3 × 10^5 CPM of ^131I-Aβ and ^125I-albumin were prepared and injected together into the jugular vein of mice treated with LPS or saline. […] Blood was allowed to clot, spun at 5,000 g to separate serum from blood cells, and 50 μl serum was counted along with harvested tissues from liver and kidney in a gamma counter. The rate of I-Aβ tissue uptake was determined using multiple-time regression analysis. For this analysis, experimental clock time was re-expressed as exposure time to correct for clearance of I-Aβ from the blood. Exposure time was calculated from the formula: […]
Serum clearance was calculated by plotting the log serum CPM/50 μl versus experimental clock time. […]

[3] = Aβ uptake by liver and kidney, multiple-time regression analysis; assay type: in vivo, CD-1 mice; conditions: IV, mean ± SEM, n = 7–10 per group
Experimental: All animal protocols were performed in an Association for Assessment and Accreditation of Laboratory Animal Care accredited facility and approved by the animal committee of the VA and St Louis University Medical Centers. Male CD-1 mice were purchased from Charles River and kept on a 12/12 hour light/dark cycle with food and water freely available. Mice at 6–8 weeks of age were treated with 3 intraperitoneal (IP) injections of 3 mg/kg LPS from Salmonella typhimurium (Sigma, St. Louis, MO, USA) dissolved in sterile normal saline over a 24-hour period as previously described. Briefly, the first injection was given in the morning, and the second and third injections were given at 6 and 24 hours following the first injection, respectively. All mice were studied at 28 hours following the first injection. […] No mice died as a result of this treatment regimen. A total of 225 mice were used in this study: 90 were used for detection of oxidative modifications to LRP-1 and Pgp measurement, 30 for LRP-1 measurement, 44 for measurement of Aβ and a2M vascular sequestration, 20 for CSF bulk flow measurement, 21 for measurement of peripheral Aβ clearance, and 20 for primary endothelial cell culture.
In BSA/lactated Ringer’s solution 3 × 10^5 CPM of ^131I-Aβ and ^125I-albumin were prepared and injected together into the jugular vein of mice treated with LPS or saline. The liver, the left kidney, and blood from the carotid artery were collected at 1, 2, 5, 10, and 20 minutes. Blood was allowed to clot, spun at 5,000 g to separate serum from blood cells, and 50 μl serum was counted along with harvested tissues from liver and kidney in a gamma counter. The rate of I-Aβ tissue uptake was determined using multiple-time regression analysis. For this analysis, experimental clock time was re-expressed as exposure time to correct for clearance of I-Aβ from the blood. Exposure time was calculated from the formula:
(5) Exposuretime=∫0tCpttdt/Cpt
where t equals experimental clock time, Cp represents the level of radioactivity in the serum over time and Cpt is the level of radioactivity in the serum at time t. Tissue/serum ratios were then calculated from the following formula:
(6) Tissue/serumratio=serumvolumetissueCPM/tissueweightserumCPM
To correct for alterations in vascular space and/or vascular permeability which occur with LPS administration, tissue/serum ratios for I-albumin were subtracted from those for I-Aβ. The corrected tissue/serum ratios were plotted against exposure time calculated for Aβ, and the unidirectional influx constant determined from the slope of the linear portion of the curve.

[4] = LPS-treated mice (3 x 3 mg/kg IP, studied at 28 h), corrected for I-albumin

Substance | rate of clearance across the murine BBB [1] | half-life in serum ([2]; LPS-treated mice (3 x 3 mg/kg IP at 0, 6, 24 h, studied at 28 h), IV injection, serum at 1-20 min) [min] | half-life in serum ([2]; saline-treated mice, IV (jugular vein) injection, serum at 1, 2, 5, 10, 20 min, log serum CPM/50 μl vs time) [min] | unidirectional influx rate of Aβ into kidney (Ki) [3, 4] [µL/g/min] | unidirectional influx rate of Aβ into liver (Ki) [3, 4] [µL/g/min] | unidirectional influx rate of Aβ into kidney (Ki) ([3]; saline-treated mice, corrected for I-albumin) [µL/g/min] | unidirectional influx rate of Aβ into liver (Ki) ([3]; saline-treated mice, tissue/serum ratio corrected for I-albumin vs exposure time) [µL/g/min]
murine Aβ1-42: Murine amyloid beta 1-42 purchased from Bachem (DAEFGHDSGFEVRHQKLVFFAEDVGSNKGAIIGLMVGGVVIA; Amyloid-beta protein 42; UniProt P12023 672-713, looked up) | cleared at a faster rate across the murine BBB than human Aβ1-42 | – | – | – | – | – | –
I-Aβ: Murine Aβ1-42 (Bachem) radioactively labeled with 125I or 131I by the chloramine-T method (DAEFGHDSGFEVRHQKLVFFAEDVGSNKGAIIGLMVGGVVIA; also: 125I or 131I radiolabel, residue not given here; UniProt P12023 672-713, looked up) | – | 8.4 | 4 | 0.5608 ± 3.859 | 8.356 ± 6.433 | 41.26 ± 10.46 | 34.67 ± 3.444
